From the Immune Epitope Database (IEDB)

What was measured:
HLA-A*02:03 = test: IEDB peptide-MHC binding, purified MHC/competitive/radioactivity; filed as Kd, often an IC50 or EC50 that approximates it; ≥ and ≤ were set here for values at or beyond the usual limits of such assays; details: source organism: Dengue virus 1 Brazil/97-11/1997
HLA-A*02:17 = test: as above
HLA-B*39:01 [1] = test: IEDB peptide-MHC binding, purified MHC/direct/fluorescence; filed as Kd, often an IC50 or EC50 that approximates it; ≥ and ≤ were set here for values at or beyond the usual limits of such assays
HLA-B*45:06 = test: IEDB peptide-MHC binding, purified MHC/competitive/fluorescence; filed as Kd, often an IC50 or EC50 that approximates it; ≥ and ≤ were set here for values at or beyond the usual limits of such assays; details: source organism: human gammaherpesvirus 4
HLA-B*15:42 = test: as above; details: source organism: human gammaherpesvirus 4
HLA-B*83:01 = test: as above; details: source organism: human gammaherpesvirus 4
HLA-C*05:01 = test: IEDB peptide-MHC binding, purified MHC/direct/fluorescence; filed as Kd, often an IC50 or EC50 that approximates it; ≥ and ≤ were set here for values at or beyond the usual limits of such assays
HLA-A*11:01 [2] = test: IEDB peptide-MHC binding, purified MHC/competitive/fluorescence; ≥ and ≤ were set here for values at or beyond the usual limits of such assays
HLA-A*24:02 = test: as above
HLA-A*03:01 [3] = test: as above
HLA-A*69:01 [4] = test: IEDB peptide-MHC binding, purified MHC/direct/fluorescence; filed as Kd, often an IC50 or EC50 that approximates it; ≥ and ≤ were set here for values at or beyond the usual limits of such assays
HLA-A*02:19 = test: as above; details: source organism: Orthohantavirus sangassouense
HLA-A*02:11 = test: as above; details: source organism: Orthohantavirus sangassouense
HLA-A*02:12 = test: as above; details: source organism: Orthohantavirus sangassouense
HLA-A*02:01 [5] = test: as above
HLA-A*02:01 [6] = test: IEDB peptide-MHC binding, purified MHC/competitive/fluorescence; ≥ and ≤ were set here for values at or beyond the usual limits of such assays; details: source organism: Zaire ebolavirus
HLA-B*15:17 = test: IEDB peptide-MHC binding, purified MHC/competitive/fluorescence; filed as Kd, often an IC50 or EC50 that approximates it; ≥ and ≤ were set here for values at or beyond the usual limits of such assays; details: source organism: Homo sapiens
HLA-B*18:01 [7] = test: as above
HLA-B*46:01 [8] = test: as above
HLA-B*27:03 = test: as above
HLA-A*26:01 = test: as above
HLA-B*57:01 [9] = test: as above
HLA-B*39:01 [10] = test: as above
HLA-B*51:01 = test: as above; details: source organism: Homo sapiens
HLA-A*03:01 [11] = test: as above
HLA-A*69:01 [12] = test: as above; details: source organism: Homo sapiens
HLA-B*15:01 = test: as above
HLA-B*18:01 [13] = test: IEDB peptide-MHC binding, purified MHC/direct/fluorescence; filed as Kd, often an IC50 or EC50 that approximates it; ≥ and ≤ were set here for values at or beyond the usual limits of such assays; details: source organism: West Nile virus
HLA-B*08:01 = test: as above; details: source organism: West Nile virus
HLA-B*27:05 = test: as above; details: source organism: West Nile virus
HLA-B*07:02 = test: as above
HLA-A*11:01 [14] = test: as above
HLA-A*01:01 = test: as above
HLA-A*31:01 = test: as above
HLA-B*46:01 [15] = test: as above; details: source organism: West Nile virus
HLA-B*57:01 [16] = test: as above
HLA-B*40:01 = test: as above; details: source organism: West Nile virus
HLA-A*29:02 = test: as above
HLA-B*58:01 = test: as above
HLA-A*03:01 [17] = test: as above
HLA-B*44:02 = test: as above; details: source organism: Mycobacterium tuberculosis
HLA-A*02:06 = test: IEDB peptide-MHC binding, purified MHC/competitive/radioactivity; filed as Kd, often an IC50 or EC50 that approximates it; ≥ and ≤ were set here for values at or beyond the usual limits of such assays; details: source organism: Dengue virus 4 Dominica/814669/1981
HLA-A*02:01 [18] = test: IEDB peptide-MHC binding, purified MHC/competitive/fluorescence; filed as Kd, often an IC50 or EC50 that approximates it; ≥ and ≤ were set here for values at or beyond the usual limits of such assays; details: source organism: Staphylococcus aureus subsp. aureus N315
[19] = source organism: Vaccinia virus Copenhagen
[20] = source organism: Sudan ebolavirus
[21] = source organism: Zaire ebolavirus
[22] = source organism: West Nile virus
[23] = source organism: Mycobacterium tuberculosis
[24] = source organism: Staphylococcus aureus subsp. aureus N315

Sequence ELMRRGDLPV has a Kd (HLA-A*02:03) of 0.139 µM and a Kd (HLA-A*02:17; source organism: Dengue virus 4 Philippines/H241/1956) of 19.9 µM.

Work on FHDSNVKNL yielded a Kd (HLA-B*39:01 [1]; source organism: Influenza A virus (A/chicken/Nakorn-Patom/Thailand/CU-K3/2004(H5N1))) of 0.168 µM.

Work on FHFFVHTLL yielded a Kd (HLA-B*39:01 [1]; source organism: Camelpox virus M-96) of 0.052 µM.

Work on FLDKGTYTL yielded a Kd (HLA-B*45:06) of no less than 5 µM, a Kd (HLA-B*15:42) of no less than 5 µM and a Kd (HLA-B*83:01) of no less than 5 µM. For the same sequence, the Kd (HLA-C*05:01; source organism: human gammaherpesvirus 4) was no more than 0.001 µM.

With FRAICTNGL the Kd (HLA-B*39:01 [1]; source organism: Escherichia coli O157:H7 str. EC869) was 0.01 µM.

In the case of FYRSGTETK, the IC50 (HLA-A*11:01 [2]; [19]) is reported as 44.1 µM, the IC50 (HLA-A*24:02; [19]) is reported as no less than 99.2 µM and the IC50 (HLA-A*03:01 [3]; [19]) is reported as 64.2 µM.

Sequence GIYTEGLMH has an IC50 (HLA-A*11:01 [2]; [20]) of 3.55 µM and an IC50 (HLA-A*03:01 [3]; [20]) of 15.4 µM.

GLYPAQIKA gave a Kd (HLA-A*69:01 [4]; source organism: Amur virus) of no less than 20 µM, a Kd (HLA-A*02:19) of no less than 20 µM and a Kd (HLA-A*02:11) of 0.033 µM. It also gave a Kd (HLA-A*02:12) of 0.126 µM and a Kd (HLA-A*02:01 [5]; source organism: Amur virus) of 0.0035 µM.

KIDNNTFVR was tested, and the IC50 (HLA-A*11:01 [2]; [20]) was 2.74 µM and the IC50 (HLA-A*03:01 [3]; [20]) was 31.9 µM.

Work on KSMRDQRKG yielded an IC50 (HLA-A*11:01 [2]; source organism: Variola virus) of 47.3 µM and an IC50 (HLA-A*03:01 [3]; source organism: Variola virus) of no less than 119 µM.

For LITGGRRTR, the IC50 (HLA-A*11:01 [2]; [21]) was no less than 93.3 µM, the IC50 (HLA-A*03:01 [3]; [21]) was no less than 112 µM and the IC50 (HLA-A*02:01 [6]) was no less than 111 µM.

In the case of LLAMTFWPA, the Kd (HLA-B*15:17) is reported as no less than 20 µM, the Kd (HLA-B*18:01 [7]; source organism: Homo sapiens) is reported as no less than 20 µM and the Kd (HLA-B*46:01 [8]; source organism: Homo sapiens) is reported as no less than 20 µM. It also gave a Kd (HLA-B*27:03; source organism: Homo sapiens) of no less than 20 µM, a Kd (HLA-A*26:01; source organism: Homo sapiens) of no less than 20 µM and a Kd (HLA-B*57:01 [9]; source organism: Homo sapiens) of no less than 20 µM. For the same sequence, the Kd (HLA-B*39:01 [10]; source organism: Homo sapiens) was no less than 20 µM, the Kd (HLA-B*51:01) was no less than 20 µM and the Kd (HLA-A*02:01 [5]; source organism: Homo sapiens) was 0.0002 µM.

For LLLKERGLH, the Kd (HLA-A*03:01 [11]; source organism: Vibrio parahaemolyticus AQ3810) was no less than 20 µM.

LMQCWQLLA gave a Kd (HLA-B*15:17) of no less than 20 µM, a Kd (HLA-B*18:01 [7]; source organism: Homo sapiens) of no less than 20 µM and a Kd (HLA-A*69:01 [12]) of no less than 20 µM. The Kd (HLA-B*15:01; source organism: Homo sapiens) was no less than 20 µM, the Kd (HLA-B*46:01 [8]; source organism: Homo sapiens) was no less than 20 µM and the Kd (HLA-B*27:03; source organism: Homo sapiens) was no less than 20 µM. For the same sequence, the Kd (HLA-A*26:01; source organism: Homo sapiens) was no less than 20 µM, the Kd (HLA-B*57:01 [9]; source organism: Homo sapiens) was no less than 20 µM and the Kd (HLA-B*39:01 [10]; source organism: Homo sapiens) was no less than 20 µM. It also gave a Kd (HLA-B*51:01) of no less than 20 µM.

LSSSVPSQK gave a Kd (HLA-A*03:01 [11]; source organism: Homo sapiens) of 0.455 µM.

For LVKTESWIL, the Kd (HLA-B*18:01 [13]) was no less than 20 µM, the Kd (HLA-B*08:01) was 1.89 µM and the Kd (HLA-A*69:01 [4]; [22]) was no less than 20 µM. For the same sequence, the Kd (HLA-B*27:05) was no less than 20 µM, the Kd (HLA-B*07:02; [22]) was no less than 20 µM and the Kd (HLA-A*11:01 [14]; [22]) was no less than 20 µM. For the same sequence, the Kd (HLA-A*01:01; [22]) was no less than 20 µM, the Kd (HLA-A*31:01; [22]) was no less than 20 µM and the Kd (HLA-B*46:01 [15]) was no less than 20 µM. It also gave a Kd (HLA-B*57:01 [16]; [22]) of no less than 20 µM, a Kd (HLA-B*40:01) of no less than 20 µM and a Kd (HLA-A*29:02; [22]) of no less than 20 µM. For the same sequence, the Kd (HLA-B*58:01; [22]) was no less than 20 µM, the Kd (HLA-A*03:01 [17]; [22]) was no less than 20 µM and the Kd (HLA-A*02:01 [5]; [22]) was no less than 20 µM.

Sequence SGYYSTTIR has an IC50 (HLA-A*11:01 [2]; [21]) of 0.903 µM, an IC50 (HLA-A*24:02; [21]) of no less than 346 µM and an IC50 (HLA-A*03:01 [3]; [21]) of 1.67 µM.

For SQAFNTPAL, the Kd (HLA-B*07:02; [23]) was no less than 20 µM, the Kd (HLA-B*44:02) was no less than 20 µM and the Kd (HLA-A*01:01; [23]) was no less than 20 µM. For the same sequence, the Kd (HLA-A*31:01; [23]) was no less than 20 µM, the Kd (HLA-B*57:01 [16]; [23]) was no less than 20 µM and the Kd (HLA-A*29:02; [23]) was no less than 20 µM. The Kd (HLA-B*58:01; [23]) was no less than 20 µM, the Kd (HLA-A*03:01 [17]; [23]) was no less than 20 µM and the Kd (HLA-B*39:01 [1]; [23]) was 0.0308 µM.

Sequence TFDVAPSRL has a Kd (HLA-A*11:01 [14]; source organism: Homo sapiens) of no less than 32.6 µM and a Kd (HLA-C*05:01; source organism: Mus musculus) of no less than 20 µM.

Sequence TLLCLIPTV has a Kd (HLA-A*02:06) of 0.00344 µM and a Kd (HLA-A*02:17; source organism: Dengue virus 4 Dominica/814669/1981) of 0.151 µM.

Work on VILNYIPVL yielded a Kd (HLA-B*18:01 [7]; [24]) of no less than 20 µM, a Kd (HLA-B*15:01; [24]) of no less than 20 µM and a Kd (HLA-B*46:01 [8]; [24]) of no less than 20 µM. The Kd (HLA-B*27:03; [24]) was no less than 20 µM, the Kd (HLA-A*26:01; [24]) was no less than 20 µM and the Kd (HLA-B*57:01 [9]; [24]) was no less than 20 µM. It also gave a Kd (HLA-A*03:01 [11]; [24]) of no less than 20 µM, a Kd (HLA-B*39:01 [10]; [24]) of no less than 20 µM and a Kd (HLA-A*02:01 [18]) of 0.0006 µM.

WMFRIRIIL showed a Kd (HLA-A*69:01 [12]) of no less than 20 µM, a Kd (HLA-B*15:01; source organism: Homo sapiens) of no less than 20 µM and a Kd (HLA-B*46:01 [8]; source organism: Homo sapiens) of no less than 20 µM. It also gave a Kd (HLA-B*27:03; source organism: Homo sapiens) of no less than 20 µM, a Kd (HLA-A*26:01; source organism: Homo sapiens) of no less than 20 µM and a Kd (HLA-B*57:01 [9]; source organism: Homo sapiens) of no less than 20 µM. The Kd (HLA-B*51:01) was no less than 20 µM.
